In general, Kd refers to a measure of binding affinity in units of concentration. Read a low Kd as a tighter complex.

Consider 19 molecules from patent US20250145729A1 (DENALI THERAPEUTICS, published 2025).

The target in test [1] is T1, circularly permuted human TfR apical domain (human).
T1 construct: TfR residues 326-379 stand N-terminal to 194-296, loop 297-325 deleted; also called huTfR Apical Domain
T1 chain: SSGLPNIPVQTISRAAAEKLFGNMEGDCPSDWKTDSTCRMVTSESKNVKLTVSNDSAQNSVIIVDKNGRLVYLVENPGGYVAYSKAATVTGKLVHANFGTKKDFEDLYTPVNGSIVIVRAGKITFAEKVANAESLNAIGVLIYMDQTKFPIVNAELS
Kind of test: SPR, supernatant, anti-Fab capture. As to the method: (§1) Clones were expressed in HEK293 cells. Supernatants were captured for SPR by GE Healthcare anti-human Fab capture kit and the affinity to human and cyno TfR apical domain was measured (Table 30). The clones in Table 30 were bivalent and each TfR-binding Fc polypeptide also contained P329G and LALA mutations.
A general note: In SPR one partner is held on a chip, and binding of the other changes the refractive index at the surface.

For test [2], the target named is T2, circularly permuted cyno TfR apical domain (cynomolgus monkey).
T2 construct: same design as the human construct; also called cyTfR Apical Domain; cynomolgus TfR apical domain
T2 chain: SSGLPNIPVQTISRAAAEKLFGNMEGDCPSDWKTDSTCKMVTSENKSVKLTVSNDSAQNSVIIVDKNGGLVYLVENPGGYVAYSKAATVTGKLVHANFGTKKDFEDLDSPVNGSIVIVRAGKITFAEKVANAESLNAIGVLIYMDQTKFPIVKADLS
Kind of test: SPR, supernatant, anti-Fab capture. As to the method: as §1

B1: 42.8.210 (Fc fusion)
chain: APEAAGGPSVFLFPPKPKDTLMISRTPEVTCVVVDVSHEDPEVKFNWYVDGVEVHNAKTKPREEQYNSTYRVVSVLTVLHQDWLNGKEYKCKVSNKALGAPIEKTISKAKGQPREPQVYTLPPSRDELTKNQVSLTCLVKGFYPSDIAVEWFYEDQKLSNYKTTPPVLDSDGSFFLYSKLTVDKSRWQQGNLFACEVMHEALHNHYTYKLLSLSPGK
notes: bivalent; P329G+LALA
In the case of B1, the Kd in test [1] came out at 0.596 µM; in test [2], 7.88 µM.

B2: 42.8.188 (Fc fusion)
chain: APEAAGGPSVFLFPPKPKDTLMISRTPEVTCVVVDVSHEDPEVKFNWYVDGVEVHNAKTKPREEQYNSTYRVVSVLTVLHQDWLNGKEYKCKVSNKALGAPIEKTISKAKGQPREPQVYTLPPSRDELTKNQVSLTCLVKGFYPSDIAVEWFYEGSKETNYKTTPPVLDSDGSFFLYSKLTVDKSRWQQGNLFACEVMHEALHNHYTYKLLSLSPGK
notes: bivalent; P329G+LALA
Consider B2, for which the figures for the dissociation constant (Kd) in test [1] and in test [2] were 1.03 µM and 12.5 µM, respectively.

B3: 42.8.79 (Fc fusion)
chain: APEAAGGPSVFLFPPKPKDTLMISRTPEVTCVVVDVSHEDPEVKFNWYVDGVEVHNAKTKPREEQYNSTYRVVSVLTVLHQDWLNGKEYKCKVSNKALGAPIEKTISKAKGQPREPQVYTLPPSRDELTKNQVSLTCLVKGFYPSDIAVEWFSEGSKENNYKTTPPVLDSDGSFFLYSKLTVDKSRWQQGNLFACEVMHEALHNHYTYKLLSLSPGK
notes: bivalent; P329G+LALA
As to B3, the Kd was 3.07 µM in test [1] and 28.6 µM in test [2].

B4: 42.8.111 (Fc fusion)
chain: APEAAGGPSVFLFPPKPKDTLMISRTPEVTCVVVDVSHEDPEVKFNWYVDGVEVHNAKTKPREEQYNSTYRVVSVLTVLHQDWLNGKEYKCKVSNKALGAPIEKTISKAKGQPREPQVYTLPPSRDELTKNQVSLTCLVKGFYPSDIAVEWFYGGQKESNYKTTPPVLDSDGSFFLYSKLTVDKSRWQQGNLFACEVMHEALHNHYTYKLLSLSPGK
notes: bivalent; P329G+LALA
On to B4, for which the Kd in test [1] worked out at 1.88 µM; in test [2], 19.1 µM.

B5: 42.2.1-20 (Fc fusion)
chain: APEAAGGPSVFLFPPKPKDTLMISRTPEVTCVVVDVSHEDPEVKFNWYVDGVEVHNAKTKPREEQYNSTYRVVSVLTVLHQDWLNGKEYKCKVSNKALGAPIEKTISKAKGQPREPQVYTLPPSRDELTKNQVSLTCLVKGFYPSDIAVEWFADASKQRNYKTTPPVLDSDGSFFLYSKLTVDKSRWQQGNLFACEVMHEALHNHYTYKLLSLSPGK
notes: P329G+LALA
Consider B5, for which the dissociation constant Kd in test [1] stood at 0.44 µM; in test [2] it was 7 µM.

B6: 42.8.216 (Fc fusion)
chain: APEAAGGPSVFLFPPKPKDTLMISRTPEVTCVVVDVSHEDPEVKFNWYVDGVEVHNAKTKPREEQYNSTYRVVSVLTVLHQDWLNGKEYKCKVSNKALGAPIEKTISKAKGQPREPQVYTLPPSRDELTKNQVSLTCLVKGFYPSDIAVEWFYEDSKLSNYKTTPPVLDSDGSFFLYSKLTVDKSRWQQGNLFACEVMHEALHNHYTYKLLSLSPGK
notes: bivalent; P329G+LALA
Consider B6, for which the equilibrium dissociation constant (Kd) in test [1] was 0.421 µM; in test [2], 5.85 µM.

B7: 42.2 (Fc fusion)
chain: APEAAGGPSVFLFPPKPKDTLMISRTPEVTCVVVDVSHEDPEVKFNWYVDGVEVHNAKTKPREEQYNSTYRVVSVLTVLHQDWLNGKEYKCKVSNKALGAPIEKTISKAKGQPREPQVYTLPPSRDELTKNQVSLTCLVKGFYPSDIAVEWFSDGSKETNYKTTPPVLDSDGSFFLYSKLTVDKSRWQQGNLFACEVMHEALHNHYTYKLLSLSPGK
notes: bivalent; P329G+LALA; also called 6.5.11.5.42.2
On to B7, for which the Kd in test [1] turned out to be 1 µM; in test [2], 7.5 µM.

B8: 42.8.65 (Fc fusion)
chain: APEAAGGPSVFLFPPKPKDTLMISRTPEVTCVVVDVSHEDPEVKFNWYVDGVEVHNAKTKPREEQYNSTYRVVSVLTVLHQDWLNGKEYKCKVSNKALGAPIEKTISKAKGQPREPQVYTLPPSRDELTKNQVSLTCLVKGFYPSDIAVEWFSDDQKLTNYKTTPPVLDSDGSFFLYSKLTVDKSRWQQGNLFACEVMHEALHNHYTYKLLSLSPGK
notes: bivalent; P329G+LALA
On to B8, for which the dissociation constant (Kd) was determined as 3.94 µM in test [1] and 10.3 µM in test [2].

B9: 42.8.72 (Fc fusion)
chain: APEAAGGPSVFLFPPKPKDTLMISRTPEVTCVVVDVSHEDPEVKFNWYVDGVEVHNAKTKPREEQYNSTYRVVSVLTVLHQDWLNGKEYKCKVSNKALGAPIEKTISKAKGQPREPQVYTLPPSRDELTKNQVSLTCLVKGFYPSDIAVEWFSDDSKLSNYKTTPPVLDSDGSFFLYSKLTVDKSRWQQGNLFACEVMHEALHNHYTYKLLSLSPGK
notes: bivalent; P329G+LALA
Take B9: the dissociation constant Kd in test [1] came out at 2.71 µM; in test [2], 13.4 µM.

B10: 42.8.15 (Fc fusion)
chain: APEAAGGPSVFLFPPKPKDTLMISRTPEVTCVVVDVSHEDPEVKFNWYVDGVEVHNAKTKPREEQYNSTYRVVSVLTVLHQDWLNGKEYKCKVSNKALGAPIEKTISKAKGQPREPQVYTLPPSRDELTKNQVSLTCLVKGFYPSDIAVEWFSGAQKESNYKTTPPVLDSDGSFFLYSKLTVDKSRWQQGNLFACEVMHEALHNHYTYKLLSLSPGK
notes: bivalent; P329G+LALA
Regarding B10, the dissociation constant Kd in test [1] is 5.96 µM; in test [2], 27 µM.

B11: 42.8.9 (Fc fusion)
chain: APEAAGGPSVFLFPPKPKDTLMISRTPEVTCVVVDVSHEDPEVKFNWYVDGVEVHNAKTKPREEQYNSTYRVVSVLTVLHQDWLNGKEYKCKVSNKALGAPIEKTISKAKGQPREPQVYTLPPSRDELTKNQVSLTCLVKGFYPSDIAVEWFSGGSKESNYKTTPPVLDSDGSFFLYSKLTVDKSRWQQGNLFACEVMHEALHNHYTYKLLSLSPGK
notes: bivalent; P329G+LALA
For the molecule B11, the Kd was 1.85 µM in test [1] and 14.3 µM in test [2].

B12: 42.8.10 (Fc fusion)
chain: APEAAGGPSVFLFPPKPKDTLMISRTPEVTCVVVDVSHEDPEVKFNWYVDGVEVHNAKTKPREEQYNSTYRVVSVLTVLHQDWLNGKEYKCKVSNKALGAPIEKTISKAKGQPREPQVYTLPPSRDELTKNQVSLTCLVKGFYPSDIAVEWFSGGSKLNNYKTTPPVLDSDGSFFLYSKLTVDKSRWQQGNLFACEVMHEALHNHYTYKLLSLSPGK
notes: bivalent; P329G+LALA
Consider B12, for which the results for the Kd in test [1] and in test [2] were 3.76 µM and 11.1 µM, respectively.

B13: 42.2.19 (Fc fusion)
chain: APEAAGGPSVFLFPPKPKDTLMISRTPEVTCVVVDVSHEDPEVKFNWYVDGVEVHNAKTKPREEQYNSTYRVVSVLTVLHQDWLNGKEYKCKVSNKALGAPIEKTISKAKGQPREPQVYTLPPSRDELTKNQVSLTCLVKGFYPSDIAVEWFYDDSKLTNYKTTPPVLDSDGSFFLYSKLTVDKSRWQPRGLFACEVMHEALHNHYTYKLLGESPGK
notes: P329G+LALA
Take B13: the Kd in test [1] was found to be 0.08 µM; in test [2], 1 µM.

B14: 42.8.80 (Fc fusion)
chain: APEAAGGPSVFLFPPKPKDTLMISRTPEVTCVVVDVSHEDPEVKFNWYVDGVEVHNAKTKPREEQYNSTYRVVSVLTVLHQDWLNGKEYKCKVSNKALGAPIEKTISKAKGQPREPQVYTLPPSRDELTKNQVSLTCLVKGFYPSDIAVEWFSEGSKETNYKTTPPVLDSDGSFFLYSKLTVDKSRWQQGNLFACEVMHEALHNHYTYKLLSLSPGK
notes: bivalent; P329G+LALA
For the molecule B14, the values for the Kd in test [1] and in test [2] were 2.38 µM and 13.6 µM, respectively.

B15: 42.8.78 (Fc fusion)
chain: APEAAGGPSVFLFPPKPKDTLMISRTPEVTCVVVDVSHEDPEVKFNWYVDGVEVHNAKTKPREEQYNSTYRVVSVLTVLHQDWLNGKEYKCKVSNKALGAPIEKTISKAKGQPREPQVYTLPPSRDELTKNQVSLTCLVKGFYPSDIAVEWFSEGQKLSNYKTTPPVLDSDGSFFLYSKLTVDKSRWQQGNLFACEVMHEALHNHYTYKLLSLSPGK
notes: bivalent; P329G+LALA
For B15, the results for the dissociation constant Kd in test [1] and in test [2] were 0.972 µM and 6.74 µM, respectively.

B16: 42.2.3-5 (Fc fusion)
chain: APEAAGGPSVFLFPPKPKDTLMISRTPEVTCVVVDVSHEDPEVKFNWYVDGVEVHNAKTKPREEQYNSTYRVVSVLTVLHQDWLNGKEYKCKVSNKALGAPIEKTISKAKGQPREPQVYTLPPSRDELTKNQVSLTCLVKGFYPSDIAVEWFYGNGKETNYKTTPPVLDSDGSFFLYSKLTVDKSRWQQGNLFACEVMHEALHNHYTYKLLSLSPGK
notes: P329G+LALA
With B16, the dissociation constant (Kd) in test [1] is 0.26 µM; in test [2], 1.8 µM.

B17: 42.8.212 (Fc fusion)
chain: APEAAGGPSVFLFPPKPKDTLMISRTPEVTCVVVDVSHEDPEVKFNWYVDGVEVHNAKTKPREEQYNSTYRVVSVLTVLHQDWLNGKEYKCKVSNKALGAPIEKTISKAKGQPREPQVYTLPPSRDELTKNQVSLTCLVKGFYPSDIAVEWFYEDSKETNYKTTPPVLDSDGSFFLYSKLTVDKSRWQQGNLFACEVMHEALHNHYTYKLLSLSPGK
notes: bivalent; P329G+LALA
As for B17, the dissociation constant (Kd) in test [1] was found to be 0.62 µM; in test [2], 9.37 µM.

B18: 42.8.213 (Fc fusion)
chain: APEAAGGPSVFLFPPKPKDTLMISRTPEVTCVVVDVSHEDPEVKFNWYVDGVEVHNAKTKPREEQYNSTYRVVSVLTVLHQDWLNGKEYKCKVSNKALGAPIEKTISKAKGQPREPQVYTLPPSRDELTKNQVSLTCLVKGFYPSDIAVEWFYEDSKESNYKTTPPVLDSDGSFFLYSKLTVDKSRWQQGNLFACEVMHEALHNHYTYKLLSLSPGK
notes: bivalent; P329G+LALA
Turning to B18, the dissociation constant Kd in test [1] came out at 0.872 µM; in test [2], 9.79 µM.

B19: 42.8.93 (Fc fusion)
chain: APEAAGGPSVFLFPPKPKDTLMISRTPEVTCVVVDVSHEDPEVKFNWYVDGVEVHNAKTKPREEQYNSTYRVVSVLTVLHQDWLNGKEYKCKVSNKALGAPIEKTISKAKGQPREPQVYTLPPSRDELTKNQVSLTCLVKGFYPSDIAVEWFSEASKESNYKTTPPVLDSDGSFFLYSKLTVDKSRWQQGNLFACEVMHEALHNHYTYKLLSLSPGK
notes: bivalent; P329G+LALA
Turning to B19, the Kd was determined as 5 µM in test [1] and 17.6 µM in test [2].
